Experimental data reported in US20110301073, “Novel DNA-binding proteins and uses thereof” (Sangamo BioSciences, Inc., published 2011).

Columns and labels:
[1] = target: T1, TALE13 +28 FokI (Xanthomonas axonopodis (engineered)); experiment: cleavage_in_vitro; two inverted sites, 16 bp gap; NEB Buffer 2, 37 C; settings: tags: FLAG, NLS, chain copies: 2
T1 chain: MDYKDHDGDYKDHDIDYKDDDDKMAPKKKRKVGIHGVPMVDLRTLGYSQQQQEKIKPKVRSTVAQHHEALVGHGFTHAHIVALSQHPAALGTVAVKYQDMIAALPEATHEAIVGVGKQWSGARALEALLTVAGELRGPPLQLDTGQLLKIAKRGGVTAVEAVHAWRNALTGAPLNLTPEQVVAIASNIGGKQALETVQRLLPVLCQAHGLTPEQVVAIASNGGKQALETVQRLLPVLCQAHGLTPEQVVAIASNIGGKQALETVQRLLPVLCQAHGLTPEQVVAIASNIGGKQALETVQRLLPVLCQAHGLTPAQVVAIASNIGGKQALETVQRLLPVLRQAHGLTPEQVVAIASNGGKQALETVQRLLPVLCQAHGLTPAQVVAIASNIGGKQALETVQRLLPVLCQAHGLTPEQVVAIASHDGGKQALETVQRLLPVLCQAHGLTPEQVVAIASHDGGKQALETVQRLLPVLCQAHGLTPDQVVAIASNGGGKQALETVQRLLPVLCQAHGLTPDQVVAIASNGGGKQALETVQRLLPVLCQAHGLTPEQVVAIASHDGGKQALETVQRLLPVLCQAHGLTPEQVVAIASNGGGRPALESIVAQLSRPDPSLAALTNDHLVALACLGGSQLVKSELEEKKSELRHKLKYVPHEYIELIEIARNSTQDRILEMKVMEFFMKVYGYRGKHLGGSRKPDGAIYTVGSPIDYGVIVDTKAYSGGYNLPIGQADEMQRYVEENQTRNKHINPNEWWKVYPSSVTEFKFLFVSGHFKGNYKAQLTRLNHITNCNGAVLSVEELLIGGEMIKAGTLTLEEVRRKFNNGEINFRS
Description: (§1) TALE domain fusions were also constructed using Fold cleavage half domains. For these examples, wild type FokI half cleavage domains were used so that for nuclease activity, a homodimer must be formed from two of the fusions. For these fusions, the TALE13 DNA binding domain was fused to each FokI half domain by cloning the TALE DNA binding domain into a plasmid adjacent to FokI-specifying sequence. In addition, various linkers were tested for use between the DNA binding domain and the nuclease domain. Linkers L2 and L8 were used which are as follows: L2=GS (SEQ ID NO:71) and L8=[…] (SEQ ID NO:72). The target sites were cloned into a TOPO2.1 target vector (Invitrogen) with varying gap spacings between each target binding site such that the two were separated from each other by 2 to 22 bp. PCR amplification of an approximately 1 kb region of the target vector was done to generate the target DNAs. The TALE DNA binding domains were also truncated as described previously, and are described using the same nomenclature as described above in Examples 2 and 6. The TALE domain nuclease fusion clones were expressed in the TNT Rabbit Reticulocyte Lysate system by adding 5 μL of water containing 250 nanograms of the nuclease fusion clone plasmid to 20 μL of lysate and incubating at 30° C. for 90 minutes.
(§2) The lysate was then used to cleave the target DNAs as follows: 2.5 μL of lysate were added to a 50 μL reaction containing 50 nanograms of PCR-amplified target DNA and a final Buffer 2 (New England Biolabs) concentration of 1×. The cleavage reaction was for one hour at 37° C., followed by a 20 minute heat inactivation stage at 65° C. The reaction was then centrifuged at high speed to separate the target DNA from the lysate, causing the lysate to condense into a pellet in the reaction well. The DNA-containing supernatant was pipetted off and run on an ethidium bromide-stained agarose gel (Invitrogen) to separate intact target DNA from cleaved target DNA. The agarose gel was then analyzed using AlphaEaseFC (Alpha Innotech) software to measure the amount of target DNA present in the large uncleaved DNA band and the two smaller DNA bands resulting from a single cleavage event of the target DNA. The percentage of cleaved DNA out of the total amount of target DNA loaded into the gel represents the percent cleavage in each reaction.

[2] = target: T2, TALE13 +39 FokI (Xanthomonas axonopodis (engineered)); experiment: as above; settings: tags: FLAG, NLS, chain copies: 2
T2 chain: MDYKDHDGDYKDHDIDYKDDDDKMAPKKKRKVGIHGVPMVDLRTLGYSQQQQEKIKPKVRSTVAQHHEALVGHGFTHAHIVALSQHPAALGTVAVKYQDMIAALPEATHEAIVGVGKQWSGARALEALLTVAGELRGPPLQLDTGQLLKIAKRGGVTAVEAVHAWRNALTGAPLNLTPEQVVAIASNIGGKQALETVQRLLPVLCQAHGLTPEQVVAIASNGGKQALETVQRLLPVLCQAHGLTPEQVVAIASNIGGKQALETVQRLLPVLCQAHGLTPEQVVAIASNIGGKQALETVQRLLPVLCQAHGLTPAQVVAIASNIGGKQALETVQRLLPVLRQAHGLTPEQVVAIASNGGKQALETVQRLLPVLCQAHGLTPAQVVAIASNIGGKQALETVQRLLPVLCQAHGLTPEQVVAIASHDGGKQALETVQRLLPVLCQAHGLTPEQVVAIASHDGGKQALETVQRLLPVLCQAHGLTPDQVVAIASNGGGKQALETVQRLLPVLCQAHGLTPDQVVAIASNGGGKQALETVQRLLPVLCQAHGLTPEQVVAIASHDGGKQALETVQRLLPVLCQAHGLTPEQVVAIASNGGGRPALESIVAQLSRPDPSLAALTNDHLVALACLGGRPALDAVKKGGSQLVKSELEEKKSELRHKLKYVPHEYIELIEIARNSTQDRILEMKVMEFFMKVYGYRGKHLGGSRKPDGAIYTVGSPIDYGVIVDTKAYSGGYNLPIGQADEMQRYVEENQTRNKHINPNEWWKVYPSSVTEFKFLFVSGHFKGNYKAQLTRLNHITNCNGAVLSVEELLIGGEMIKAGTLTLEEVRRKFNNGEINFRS
Description: as §1, §2

B1: TALE13 target (dsDNA)
DNA 1: TATAAATACCTTCT
DNA 2: AGAAGGTATTTATA
B1 was tested, and the activity [1] was 100 % cleavage and the activity [2] was 100 % cleavage.
